Source: the Human Domainome abundance scans (Beltran et al. 2025)

B1: Gamma-crystallin C, residues 4 to 79; numbered along this chain, P07315 (parent)
chain: ITFYEDRAFQGRSYETTTDCPNLQPYFSRCNSIRVESGCWMLYERPNYQGQQYLLRRGEYPDYQQWMGLSDSIRSC

Variants of: B1
Experiment: abundance fitness (aPCA) (normalised: wild type 0, dead -1); higher = more abundant; growth selection in yeast, the domain comes from the species named
Settings: Homo sapiens

Abundance fitness, by site and new letter:
R57: P -0.009 | Q 0.044 | S -0.039 | T 0.244 | V 0.024 | W -0.143 | Y -0.269
G58: D 0.251 | E -0.272 | K -0.197 | L -0.659 | M -0.223 | N 0.034 | P -0.674 | Q -0.166 | R -0.16 | S -0.039 | T -0.102 | V -1 | W -0.408 | Y 0.009
E59: A -0.07 | D 0.025 | F -0.039 | G 0.019 | I -0.789 | K 0 | L -0.084 | M -0.029 | N -0.155 | P 0.003 | Q 0.009 | R -0.181 | S 0.049 | T -0.196 | V -0.053 | W -0.275
Y60: F -0.198 | L -0.247
P61: A -0.004 | C -0.072 | D -0.034 | E -0.094 | F -0.039 | G -0.041 | H -0.205 | I -0.129 | K 0 | L -0.064 | M 0.002 | Q -0.051 | R -0.038 | S 0.004 | T -0.142 | V -0.083 | Y -0.018
D62: A -0.006 | C -0.177 | F 0.041 | G -0.013 | H -0.106 | I -0.26 | L -0.086 | M -0.03 | N -0.043 | P -0.401 | Q -0.062 | R -0.034 | S -0.071 | T -0.055 | V -0.015 | W 0.059 | Y -0.037
Y63: A -0.115 | D -0.067 | E -0.146 | F 0.032 | G -0.041 | H -0.234 | I -0.028 | L -0.097 | M -0.12 | N -0.088 | P 0.094 | Q -0.12 | R -0.049 | S -0.06 | T -0.113 | V -0.103 | W -0.126
Q64: A -0.08 | C 0.062 | E 0.024 | F -0.09 | G -0.045 | H 0.155 | I -0.039 | K -0.042 | L -0.081 | M -0.101 | N 0.044 | P -0.013 | S -0.188 | T -0.004 | V -0.022 | W -0.021 | Y -0.182
Q65: A 0.006 | C 0 | D -0.019 | E 0.052 | F -0.253 | H -0.065 | I -0.133 | K -0.175 | L -0.088 | M 0.015 | N 0.014 | P 0.027 | R -0.036 | S -0.042 | T -0.089 | V -0.041 | W -0.119 | Y 0.029
W66: A 0.039 | C -0.168 | D -0.12 | E 0.068 | F -0.009 | G 0.059 | H -0.01 | I -0.006 | K -0.023 | L -0.082 | M -0.093 | N 0.091 | P 0.005 | Q 0.046 | T 0.021 | V 0.018 | Y 0.069
M67: A -0.03 | C -0.173 | D -0.106 | E -0.131 | F -0.091 | G -0.113 | H -0.01 | K -0.043 | L -0.011 | N -0.065 | P -0.057 | Q -0.042 | R -0.005 | S -0.057 | T -0.018 | V 0.008 | W 0.044 | Y -0.067
G68: A 0.003 | C 0.117 | D -0.042 | E -0.062 | K 0.028 | L -0.027 | N -0.053
